Literature values in publication PMC9782320.

Target: plasmin (Homo sapiens) (UniProt P00747)
UniProt P00747, sequence (P00747 581-810): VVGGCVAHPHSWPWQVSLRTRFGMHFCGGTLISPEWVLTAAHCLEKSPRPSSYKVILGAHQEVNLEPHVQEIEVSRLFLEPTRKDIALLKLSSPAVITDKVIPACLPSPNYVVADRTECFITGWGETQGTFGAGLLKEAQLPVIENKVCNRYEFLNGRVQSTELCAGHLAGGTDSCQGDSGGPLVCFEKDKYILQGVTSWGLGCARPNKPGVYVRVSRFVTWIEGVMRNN

staphylokinase (from UniProt P68801)
Kd: 10 nM
